Reference: PMC2714705 (Structure (London, England : 1993), 2009)
Values joined by “and” are separate entries in the source; they are usually repeats but may differ in a detail not shown here. Identical values can stand only once.

T1: P22 portal protein gp1 in the tail machine purified from virions (bacteriophage P22, UniProt P26744 1-725)
T1 sequence (looked up): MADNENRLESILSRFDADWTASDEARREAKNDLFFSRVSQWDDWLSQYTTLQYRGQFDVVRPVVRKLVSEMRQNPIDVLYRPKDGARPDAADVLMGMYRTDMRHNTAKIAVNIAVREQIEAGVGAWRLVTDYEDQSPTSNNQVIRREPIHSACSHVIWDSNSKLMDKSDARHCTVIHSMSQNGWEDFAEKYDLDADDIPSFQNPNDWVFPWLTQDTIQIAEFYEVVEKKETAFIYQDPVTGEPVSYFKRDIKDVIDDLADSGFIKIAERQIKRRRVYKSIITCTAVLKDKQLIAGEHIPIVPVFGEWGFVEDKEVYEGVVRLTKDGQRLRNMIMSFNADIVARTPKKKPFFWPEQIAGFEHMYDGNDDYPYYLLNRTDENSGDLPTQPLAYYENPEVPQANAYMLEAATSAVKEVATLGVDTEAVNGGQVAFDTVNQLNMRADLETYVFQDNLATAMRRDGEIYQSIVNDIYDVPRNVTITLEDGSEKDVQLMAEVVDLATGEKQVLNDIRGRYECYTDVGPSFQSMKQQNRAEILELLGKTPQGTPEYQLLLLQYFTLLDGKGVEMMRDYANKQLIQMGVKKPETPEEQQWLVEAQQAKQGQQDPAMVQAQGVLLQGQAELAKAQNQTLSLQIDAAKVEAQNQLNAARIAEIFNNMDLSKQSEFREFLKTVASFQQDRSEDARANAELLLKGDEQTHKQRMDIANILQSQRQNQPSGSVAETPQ

T2: P22 assembly-naïve portal, full length His-tagged gp1 (bacteriophage P22), P26744
T2 chain: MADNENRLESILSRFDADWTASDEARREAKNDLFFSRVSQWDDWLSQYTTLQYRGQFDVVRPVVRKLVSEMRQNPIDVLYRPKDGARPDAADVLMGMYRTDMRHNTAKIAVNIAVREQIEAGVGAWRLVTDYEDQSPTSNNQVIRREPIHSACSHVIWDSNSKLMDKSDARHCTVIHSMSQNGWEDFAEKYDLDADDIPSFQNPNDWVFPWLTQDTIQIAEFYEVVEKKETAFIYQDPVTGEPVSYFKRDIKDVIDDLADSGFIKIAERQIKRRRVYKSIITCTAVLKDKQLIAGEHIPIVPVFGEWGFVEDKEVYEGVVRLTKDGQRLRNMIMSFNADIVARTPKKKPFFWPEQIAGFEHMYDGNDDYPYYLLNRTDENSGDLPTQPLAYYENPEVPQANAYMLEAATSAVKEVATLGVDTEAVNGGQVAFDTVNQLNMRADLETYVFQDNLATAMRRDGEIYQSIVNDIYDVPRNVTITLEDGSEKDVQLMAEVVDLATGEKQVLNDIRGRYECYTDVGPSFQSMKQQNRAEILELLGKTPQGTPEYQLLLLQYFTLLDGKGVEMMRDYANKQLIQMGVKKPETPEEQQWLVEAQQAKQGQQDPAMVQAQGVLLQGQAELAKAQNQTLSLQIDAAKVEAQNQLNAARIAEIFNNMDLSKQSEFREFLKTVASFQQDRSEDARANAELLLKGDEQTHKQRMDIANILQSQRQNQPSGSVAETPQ


What was measured:
Test in all cases: cryo-EM structure
[1] = biological target: T1, P22 portal protein gp1 in the tail …
P22 gp9 tailspike = P22 gp9 tailspike (bacteriophage P22, UniProt P12528 1-667)
cryo-EM structure = biological target: the molecule itself
[2] = biological target: T2, P22 assembly-naïve portal, full length …; details: remark: other sources report otherwise

Binder	binding result [1]	binding result (P22 gp9 tailspike)	binding result (cryo-EM structure)	stoichiometry N [2]
P22 gp4 (natural protein, bacteriophage P22, UniProt P26746 1-166, looked up) MQIKTKGDLVRAALRKLGVASDATLTDVEPQSMQDAVDDLEAMMAEWYQDGKGIITGYVFSDDENPPAEGDDHGLRSSAVSAVFHNLACRIAPDYALEATAKIIATAKYGKELLYKQTAISRAKRAPYPSRMPTGSGNSFANLNEWHYFPGEQNADSTTPHDEGNG	binds	binds	binds	–
P22 gp26 tail needle (natural protein, bacteriophage P22) MADPSLNNPVVIQATRLDASILPRNVFSKSYLLYVIAQGTDVGAIAGKANEAGQGAYDAQVKNDEQDVELADHEARIKQLRIDVDDHESRITANTKAITALNVRVTTAEGEIASLQTNVSALDGRVTTAENNISALQADYVSKTATTSQSLASPLNVTTSYSVGGKKVLGARQTGWTAATGTANKGVFDADLTFAVSDTYTQSEIQAIANALITERRRTKALEDALRAHGLID	–	–	binds	–
P22 assembly-naïve portal, full length His-tagged gp1, P26744 1-725 (natural protein) MADNENRLESILSRFDADWTASDEARREAKNDLFFSRVSQWDDWLSQYTTLQYRGQFDVVRPVVRKLVSEMRQNPIDVLYRPKDGARPDAADVLMGMYRTDMRHNTAKIAVNIAVREQIEAGVGAWRLVTDYEDQSPTSNNQVIRREPIHSACSHVIWDSNSKLMDKSDARHCTVIHSMSQNGWEDFAEKYDLDADDIPSFQNPNDWVFPWLTQDTIQIAEFYEVVEKKETAFIYQDPVTGEPVSYFKRDIKDVIDDLADSGFIKIAERQIKRRRVYKSIITCTAVLKDKQLIAGEHIPIVPVFGEWGFVEDKEVYEGVVRLTKDGQRLRNMIMSFNADIVARTPKKKPFFWPEQIAGFEHMYDGNDDYPYYLLNRTDENSGDLPTQPLAYYENPEVPQANAYMLEAATSAVKEVATLGVDTEAVNGGQVAFDTVNQLNMRADLETYVFQDNLATAMRRDGEIYQSIVNDIYDVPRNVTITLEDGSEKDVQLMAEVVDLATGEKQVLNDIRGRYECYTDVGPSFQSMKQQNRAEILELLGKTPQGTPEYQLLLLQYFTLLDGKGVEMMRDYANKQLIQMGVKKPETPEEQQWLVEAQQAKQGQQDPAMVQAQGVLLQGQAELAKAQNQTLSLQIDAAKVEAQNQLNAARIAEIFNNMDLSKQSEFREFLKTVASFQQDRSEDARANAELLLKGDEQTHKQRMDIANILQSQRQNQPSGSVAETPQ	–	–	–	11 and 12
